In this assay the target is Aβ(1-42) fibrils 1-42 (Homo sapiens, UniProt P05067). Put plainly: SPR.

Ends that are not written are not given here.

Sequence of Aβ(1-42) fibrils 1-42 (P05067 1-42): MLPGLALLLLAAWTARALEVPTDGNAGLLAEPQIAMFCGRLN

B1: LPFFD peptide (peptide)
chain: LPFFD
What is called Kd is the constant that tells how readily two partners part at equilibrium. A high value points to lower affinity. Turning to B1, binding was put at a Kd of 317 µM.

B2: AGuIX@PEG@LPFFD@Cy5.5 (peptide)
chain: LPFFD
modifications: also: conjugated to AGuIX nanoparticle via PEG, labelled with Cy5.5, attachment sites not given here
In the case of B2, the affinity, expressed as Kd, was 261 µM.
